Assays:
IgG Fc (control) [1] = test: phage ELISA on control (IgG Fc), 89 identical clones
IgG Fc (control) [2] = test: phage ELISA on control (IgG Fc), lower end
IgG Fc (control) [3] = test: phage ELISA on control (IgG Fc), upper end

B1: bb10 (SEQ ID NO 19), phage clone (designed binder)
chain: MGSWAEFKQRLAAIKTRLEALGGSEAELAAFLGEIWAFEMELAAYKGKGNPEVEALGREAAAIRMELQAYRHN
ELISA absorbance (IgG Fc (control) [1]): 0.067 OD | ELISA absorbance (IgG Fc (control) [2]): 0.056 OD | ELISA absorbance (IgG Fc (control) [3]): 0.125 OD
